The source of these data is patent US9512220 (dated 2016).

Substitutions are numbered along the chain they refer to.

One may read the IC50 as the concentration at which inhibition is half-maximal. Low values mean inhibition by little substance, high ones a need for much substance.

The labels stand for the following.
T1: Angiopoietin 1 (UniProt Q15389)
T1 chain: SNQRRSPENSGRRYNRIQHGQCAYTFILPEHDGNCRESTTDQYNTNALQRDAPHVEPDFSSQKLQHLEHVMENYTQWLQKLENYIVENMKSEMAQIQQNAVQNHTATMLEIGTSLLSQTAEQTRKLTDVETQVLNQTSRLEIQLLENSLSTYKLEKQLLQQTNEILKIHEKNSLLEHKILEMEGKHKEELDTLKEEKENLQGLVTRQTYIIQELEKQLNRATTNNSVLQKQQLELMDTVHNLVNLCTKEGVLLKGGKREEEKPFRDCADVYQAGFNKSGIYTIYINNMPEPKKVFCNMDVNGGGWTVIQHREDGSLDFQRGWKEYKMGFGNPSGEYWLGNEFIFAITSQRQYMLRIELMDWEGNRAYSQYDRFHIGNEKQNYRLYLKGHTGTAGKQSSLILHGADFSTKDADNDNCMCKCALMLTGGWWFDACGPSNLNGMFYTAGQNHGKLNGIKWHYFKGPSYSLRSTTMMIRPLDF

T2: Angiopoietin 2 (UniProt O15123)
T2 chain: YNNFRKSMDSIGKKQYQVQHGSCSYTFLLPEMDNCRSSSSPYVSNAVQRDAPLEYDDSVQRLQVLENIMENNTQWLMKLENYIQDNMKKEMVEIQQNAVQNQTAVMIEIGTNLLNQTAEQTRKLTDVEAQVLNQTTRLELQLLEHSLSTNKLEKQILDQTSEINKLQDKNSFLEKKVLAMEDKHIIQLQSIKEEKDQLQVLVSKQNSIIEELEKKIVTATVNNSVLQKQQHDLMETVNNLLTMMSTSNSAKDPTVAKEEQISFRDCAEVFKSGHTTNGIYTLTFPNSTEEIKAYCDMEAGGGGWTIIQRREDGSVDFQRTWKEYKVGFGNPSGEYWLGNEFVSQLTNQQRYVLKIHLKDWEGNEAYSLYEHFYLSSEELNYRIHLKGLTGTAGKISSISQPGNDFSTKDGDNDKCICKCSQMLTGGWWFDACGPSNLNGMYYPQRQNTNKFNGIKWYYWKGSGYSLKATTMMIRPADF

B1: HC14/LC14 (antibody, V domains shown)
VH: EVQLLESGGGLVQPGGSLGLSCAASGFTLSNYDMSWVRQAPGKGLEWVSWISPDSSSTYYADSVKGRFTISRDNSKNTLYLQMNSLRAEDTAVYYCARSVMPFDYWGQGTLVTVSS
VL: QSVLTQPPSASGTPGQRVTISCSGSSSNIGSNAVYWYQQLPGTAPKLLIYDDSKRPSGVPDRFSGSKSGTSASLAIGGLRSEDEADYYCGAWDDSLSAYVFGGGTKLTVL
B2: HC16/LC16 (antibody, V domains shown)
VH: EVQLLESGGGLVQPGGSLRLSCAASGFTFSDYYMSWVRQAPGKGLEWVSSISYDDGSRKYYADSGKRSVTISRDNSKNTLYLQMNSLRAEDTAVYYCARDRSTLRLDSFDYWGQGTLVTVSS
VL: B1 VL with Q16R, S27P, S31N, A33T, Y35N, D51S, K54H, G77S, D94Y, S97N
B3: HC22/LC22 (antibody, V domains shown)
VH: EVQLVQSGAEVKKPGASVKVSCKASGGTFSSYAISWVRQAPGQGLEWMGGIIPIFGTANYAQKFQGRVTITADESTSTAYMELSSLRSEDTAVYYCARGGSGRFDYWGQGTLVTVSS
VL: QSALTQPASVSGSPGESIIISCTGTSSDVGAYNYVSWYQQHLGKAPKLMIYDVSQRPSGVSDRFSGSKSGNTASLTISGLQAEDEADYYCSSFTGDSVIFGGGTKLTVL
B4: HC2/LC2 (antibody, V domains shown)
VH: EVQLLESGGGLVQPGGSLRLSCAASGFTFSNYAMSWVRQAPGKGLEWVSVISPGSGNTYYADSVKGRFTISRDNSKNTLYLQMNSLRAEDTAVYYCAKGALKCRHRSCSSYNAMDVWGQGTLVTVSS
VL: QSVLTQPPSASGTPGQRVTISCTGSSSNIGNNDVSWYQQLPGTAPKLLIYDNNHRPSGVPDRFSGSKSGTSASLAISGLRSEDEADYYCGTWDASLNGYVFGGGTKLTVL
B5: HC12/LC12 (antibody, V domains shown)
VH: B4 VH
VL: B4 VL
B6: HC4/LC4 (antibody, V domains shown)
VH: EVQLLESGGGLVQPGGSLRLSCAASGFTFSNYAMSWVRQAPGKGLEWVSAISHGGSSKYYADSVKGRFTISRDNSKNTLYLQMNSLRAEDTAVYYCARDRTASLLDGFDYWGQGTLVTVSS
VL: B4 VL with T23S, D33Y, S35N, D51A, N52D, N53S, H54N, N97S
B7: HC10/LC10 (antibody, V domains shown)
VH: EVQLVESGGGLVQPGGSLRLSCAASGFTFSNYAMSWVRQAPGKGLEWVSWIYPDNGNTYYADSVKGRFTISRDNSKNTLYLQMNSLRAEDTAVYYCAKYSLDKYTPWPYSYYGMDVWGQGTLVTVSS
VL: B4 VL with D33A, S35T, N52D, N53S, V59A, N97S, G98A
B8: HC18/LC18 (antibody, V domains shown)
VH: B1 VH with G19R, L29F, N31D, S55D, S56G, T58I, M101L
VL: B1 VL with G77S, L79F, A91S, D94A, S97N
B9: HC8/LC8 (antibody, V domains shown)
VH: EVQLLESGGGLVQPGGSLRLSCAASGFTFSNYSMSWVRQAPGKGLEWVSAISPGNGNKYYADSVKGRFTISRDNSKNTLYLQMNSLRAEDTAVYYCAKGLSSLLLVGFDYWGQGTLVTVSS
VL: B4 VL with T23S, D51S, N52D, N53S, H54Q, T91S

The target in one assay is T1, Angiopoietin 1. Description: competition, blocking Tie-2.
B1 displayed an IC50 of 0.74 nM.
B2 yielded an IC50 of 0.26 nM.
Same read-out and setting: for B3 the value was 0.24 nM.
As to B4, the IC50 amounted to 0.23 nM.
As to B5, the IC50 was found to be 0.38 nM.
Still for that read-out and setting: the figure for B6 is 0.26 nM.
For the molecule B7, the IC50 amounted to 0.19 nM.
The molecule B8 showed an IC50 of 0.24 nM.
Regarding B9, the IC50 was 0.21 nM.

For the next assay, the target named is T2, Angiopoietin 2. Description: competition, blocking Tie-2.
The molecule B1 showed an IC50 of 0.08 nM. This lies in the picomolar range.
On to B2, for which the IC50 stood at 0.32 nM. Against the preceding molecule, the IC50 is about 4-fold higher.
Same read-out and setting: for B3 the value was 0.03 nM.
For B4, the IC50 was 0.06 nM.
The same measure, in the same setting: the figure for B5 is 0.04 nM.
On the same count and under the same terms, the figure for B6 is 1.35 nM; for B7 it is 1.22 nM; for B8 it is 2.85 nM.
Same read-out and setting: the figure for B9 is 0.2 nM.
